pKd: −log10 of the molar value.

For the first data set, the target named is full-length GST–MLV IN(1–408) (murine leukemia virus (MLV)). The data set can be described thus: pull-down.
Chain of full-length GST–MLV IN(1–408) (murine leukemia virus (MLV)) (P03355 1331-1738 limits assumed): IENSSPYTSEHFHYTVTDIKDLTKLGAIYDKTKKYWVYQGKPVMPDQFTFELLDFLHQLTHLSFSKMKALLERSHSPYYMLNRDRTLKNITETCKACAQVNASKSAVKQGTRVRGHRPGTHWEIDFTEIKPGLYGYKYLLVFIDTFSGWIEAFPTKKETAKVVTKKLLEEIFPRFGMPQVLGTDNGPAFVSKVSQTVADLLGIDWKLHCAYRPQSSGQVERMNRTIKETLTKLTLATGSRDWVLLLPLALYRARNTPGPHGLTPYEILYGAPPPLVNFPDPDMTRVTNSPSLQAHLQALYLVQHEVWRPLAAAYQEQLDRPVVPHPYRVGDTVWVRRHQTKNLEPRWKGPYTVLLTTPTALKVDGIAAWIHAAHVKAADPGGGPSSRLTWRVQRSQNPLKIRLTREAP
Conditions: not given
For the substance “6xHis–Brd4 B/BID(462–599) (from UniProt O60885 462-599) (domain or fragment)”, the pKd – broadly, the negative decadic logarithm of the Kd, by convention in mol/L – was less than 5.70.
On the same count and under the same terms, with “6xHis–Brd4 ET(600–678) (from UniProt O60885 600-678) (domain or fragment)” the figure was 6.69; with “6xHis–Brd4 ET/SEED(600–720) (from UniProt O60885 600-720) (domain or fragment)”, 6.69; with “6xHis–Brd4(1–720) (from UniProt O60885 1-720) (natural protein)”, 7.23.
For the substance “6xHis–cBrd4(462–720) (from UniProt O60885 462-720) (domain or fragment)”, the pKd was 7.11.
Consider “6xHis–nBrd4(1–461) (from UniProt O60885 1-461) (domain or fragment)”, for which the pKd was less than 5.70.

In the next data set the test system is 6xHis-Brd4(1-720) (human). The experiment in a line: streptavidin bead pull-down, Coomassie, Hill fit. Particulars: no added Mg2+; DNA pull-down: 50 mM HEPES pH 7.5, 100 mM NaCl, 0.5% NP40, 2 mM BME, 8.3 uM DNA; HTRF: 25 mM Tris pH 7.4, 150 mM NaCl, 2 mM MgCl2, 0.1% NP40, 1 mg/ml BSA …. On the technique in general: Time-resolved FRET reads energy transfer from a long-lived donor to a nearby acceptor.
In turn, 40-bp SMYD1 DNA showed a pKd of 5.67.
